According to US20230303698A1 (HARBOUR BIOMED SHANGHAI, published 2023):

B1: PR003549 (bispecific antibody, human IgG1, kappa, L234A L235A)
light: DIQMTQSPSTLSASVGDRVTVTCRASQSIYIWLAWYQQKPGKAPNLLIYKASSLETGVPSRFSGSGSGTEFTLTISSLQPDDFATYYCQQYYGSSRTFGQGTKVEIKRTVAAPSVFIFPPSDEQLKSGTASVVCLLNNFYPREAKVQWKVDNALQSGNSQESVTEQDSKDSTYSLSSTLTLSKADYEKHKVYACEVTHQGLSSPVTKSFNRGEC
heavy: EVQLVESGGGLVQPGGSLRLSCAASGFTFSSYWMSWVRQAPGKGLEWVANIKQEGSEKYYVDSVKGRFTISRDNAKNSLYLQMNSLRAEDTAVYYCARDRAVAGAFDIWGQGTMVTVSSASTKGPSVFPLAPSSKSTSGGTAALGCLVKDYFPEPVTVSWNSGALTSGVHTFPAVLQSSGLYSLSSVVTVPSSSLGTQTYICNVNHKPSNTKVDKKVEPKSCDKTHTCPPCPAPEAAGGPSVFLFPPKPKDTLMISRTPEVTCVVVDVSHEDPEVKFNWYVDGVEVHNAKTKPREEQYNSTYRVVSVLTVLHQDWLNGKEYKCKVSNKALGAPIEKTISKAKGQPREPQVYTLPPSREEMTKNQVSLTCLVKGFYPSDIAVEWESNGQPENNYKTTPPVLDSDGSFFLYSKLTVDKSRWQQGNVFSCSVMHEALHNHYTQKSLSLSPGEPKSSDKTHTPPPPPRTEVQLLESGGGLVQLGGSLRLSCAASGFTFSRYAMTWVRQAPEKGLEWVSSISGSGDDTYYGDSVKGRFTISRDNSQNTVYLQMNSLRAEDTAVYFCAKEKAGTTGDYYYNVDVWGQGTTVTVSS
notes: Structure 1, IgG-VH tetravalent symmetric; PD-L1 Fab from PR000265, 4-1BB VH from PR001758; linker H1_15-RT; human IgG1 (AAG); also called PD-L1×4-1BB bispecific antibody molecule
B2: PR003550 (bispecific antibody, human IgG1, kappa, L234A L235A)
light: B1 light
heavy: EVQLVESGGGLVQPGGSLRLSCAASGFTFSSYWMSWVRQAPGKGLEWVANIKQEGSEKYYVDSVKGRFTISRDNAKNSLYLQMNSLRAEDTAVYYCARDRAVAGAFDIWGQGTMVTVSSASTKGPSVFPLAPSSKSTSGGTAALGCLVKDYFPEPVTVSWNSGALTSGVHTFPAVLQSSGLYSLSSVVTVPSSSLGTQTYICNVNHKPSNTKVDKKVEPKSCDKTHTCPPCPAPEAAGGPSVFLFPPKPKDTLMISRTPEVTCVVVDVSHEDPEVKFNWYVDGVEVHNAKTKPREEQYNSTYRVVSVLTVLHQDWLNGKEYKCKVSNKALGAPIEKTISKAKGQPREPQVYTLPPSREEMTKNQVSLTCLVKGFYPSDIAVEWESNGQPENNYKTTPPVLDSDGSFFLYSKLTVDKSRWQQGNVFSCSVMHEALHNHYTQKSLSLSPGEPKSSDKTHTPPPPPRTEVQLVESGGGVVQPGGSLRLSCAASGFTFSNYAMTWVRQAPEKGLEWVSSISGSGVSTYYADSVKGRFTISRDNSKNTLYLQMTRLTAEDTAVYFCAKEGSSETDDHYYNVDVWGQGTTVTVSS
notes: Structure 1, IgG-VH tetravalent symmetric; PD-L1 Fab from PR000265, 4-1BB VH from PR001760; linker H1_15-RT; human IgG1 (AAG); also called PD-L1×4-1BB bispecific antibody molecule
B3: PR003551 (bispecific antibody, human IgG1, kappa, L234A L235A)
light: B1 light
heavy: EVQLVESGGGLVQPGGSLRLSCAASGFTFSSYWMSWVRQAPGKGLEWVANIKQEGSEKYYVDSVKGRFTISRDNAKNSLYLQMNSLRAEDTAVYYCARDRAVAGAFDIWGQGTMVTVSSASTKGPSVFPLAPSSKSTSGGTAALGCLVKDYFPEPVTVSWNSGALTSGVHTFPAVLQSSGLYSLSSVVTVPSSSLGTQTYICNVNHKPSNTKVDKKVEPKSCDKTHTCPPCPAPEAAGGPSVFLFPPKPKDTLMISRTPEVTCVVVDVSHEDPEVKFNWYVDGVEVHNAKTKPREEQYNSTYRVVSVLTVLHQDWLNGKEYKCKVSNKALGAPIEKTISKAKGQPREPQVYTLPPSREEMTKNQVSLTCLVKGFYPSDIAVEWESNGQPENNYKTTPPVLDSDGSFFLYSKLTVDKSRWQQGNVFSCSVMHEALHNHYTQKSLSLSPGEPKSSDKTHTPPPPPRTEVQLLESGGGLVQPGGSLRLSCAASGFIFSNFAMTWVRQPPEKGLKWVSSINGSGFNTYYTDSVKGRFTISRDNSRNTLYLQMNRLTAEDTAVYFCAKEGSSETDDHYYNVDVWGQGTTVTVSS
notes: Structure 1, IgG-VH tetravalent symmetric; PD-L1 Fab from PR000265, 4-1BB VH from PR001836; linker H1_15-RT; human IgG (AAG) as printed; also called PD-L1×4-1BB bispecific antibody molecule
B4: PR004270 (bispecific antibody, human IgG1)
chain 1: EVQLVESGGGLVQPGGSLRLSCAASGFTFSSYWMSWVRQAPGKGLEWVANIKQEGSEKYYVDSVKGRFTISRDNAKNSLYLQMNSLRAEDTAVYYCARDRAVAGAFDIWGQGTMVTVSSASTKGPSVFPLAPSSKSTSGGTAALGCLVKDYFPEPVTVSWNSGALTSGVHTFPAVLQSSGLYSLSSVVTVPSSSLGTQTYICNVNHKPSNTKVDKKVEPKSC
chain 2: not shown
notes: Structure 3, Fab(CL)-VH-Fc (Fab-HCAb) tetravalent symmetric; PD-L1 Fab from PR000265, 4-1BB VH from PR001760; L1 H1_15, L2 human IgG1 hinge (C220S); human IgG1 (LALA); also called PD-L1×4-1BB bispecific antibody molecule with the Fab-HCAb symmetric structure
B5: PR007164 (bispecific antibody, human IgG1)
chain 1: B4 chain 1
chain 2: not shown
notes: Structure 3, Fab(CL)-VH-Fc (Fab-HCAb); PD-L1 Fab from PR000265, 4-1BB VH from PR001760; no first linker, second linker human IgG1 hinge (C220S); human IgG1 (LALA); also called PD-L1×4-1BB bispecific antibody molecule, structure (3)
B6: PR007163 (bispecific antibody, human IgG1)
light: B1 light
heavy: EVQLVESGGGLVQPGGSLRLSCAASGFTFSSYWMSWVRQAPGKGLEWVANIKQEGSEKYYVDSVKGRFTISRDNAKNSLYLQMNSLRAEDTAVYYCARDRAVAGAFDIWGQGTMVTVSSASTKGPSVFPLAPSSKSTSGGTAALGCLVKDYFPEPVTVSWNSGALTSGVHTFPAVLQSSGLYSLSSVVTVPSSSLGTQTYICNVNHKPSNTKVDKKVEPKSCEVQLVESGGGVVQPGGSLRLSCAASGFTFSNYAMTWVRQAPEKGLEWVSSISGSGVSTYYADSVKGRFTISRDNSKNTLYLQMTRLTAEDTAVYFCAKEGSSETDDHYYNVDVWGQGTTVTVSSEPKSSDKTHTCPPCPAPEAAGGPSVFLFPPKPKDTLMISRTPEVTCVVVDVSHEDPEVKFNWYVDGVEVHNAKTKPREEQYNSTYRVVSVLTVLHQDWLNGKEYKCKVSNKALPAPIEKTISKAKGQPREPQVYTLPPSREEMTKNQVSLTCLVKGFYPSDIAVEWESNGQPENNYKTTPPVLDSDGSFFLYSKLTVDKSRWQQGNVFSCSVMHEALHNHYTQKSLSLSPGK
notes: Structure 4, Fab(CH1)-VH-Fc (Fab-HCAb); PD-L1 Fab from PR000265, 4-1BB VH from PR001760; no first linker, second linker human IgG1 hinge (C220S); human IgG1 (LALA); also called PD-L1×4-1BB bispecific antibody molecule, structure (4)
B7: PR000265, anti-PD-L1 91G3H5H3(D54E), hIgG1(N297A) (antibody, V domains shown)
VH: EVQLVESGGGLVQPGGSLRLSCAASGFTFSSYWMSWVRQAPGKGLEWVANIKQEGSEKYYVDSVKGRFTISRDNAKNSLYLQMNSLRAEDTAVYYCARDRAVAGAFDIWGQGTMVTVSS
VL: DIQMTQSPSTLSASVGDRVTVTCRASQSIYIWLAWYQQKPGKAPNLLIYKASSLETGVPSRFSGSGSGTEFTLTISSLQPDDFATYYCQQYYGSSRTFGQGTKVEIKR
notes: Parent monoclonal antibody of the PD-L1 end

What follows are binders tested against T1, human PD-L1 (human, UniProt Q9NZQ7 19-290) (assay: flow cytometry, CHO-K1/hPD-L1 cells).
T1 construct: whole, on cells; Expressed on CHO-K1/hPD-L1 cells (GenScript, M00543); also called CD274; B7-H1
T1 sequence (Q9NZQ7 19-290): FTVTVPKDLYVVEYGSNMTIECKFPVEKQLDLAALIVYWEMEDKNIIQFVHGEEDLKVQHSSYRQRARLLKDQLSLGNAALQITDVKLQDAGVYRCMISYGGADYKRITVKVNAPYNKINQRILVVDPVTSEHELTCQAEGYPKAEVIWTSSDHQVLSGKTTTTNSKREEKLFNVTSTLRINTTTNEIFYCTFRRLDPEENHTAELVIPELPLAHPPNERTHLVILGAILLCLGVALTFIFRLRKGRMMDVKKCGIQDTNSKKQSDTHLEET

Row | Binder | binding result
1 | B1 | binds
2 | B2 | binds
3 | B3 | binds
4 | B4 | binds
5 | B5 | binds
6 | B6 | binds
7 | B7 | binds

The binders below were run against T2, human 4-1BB (human, UniProt Q07011 24-255) (assay: flow cytometry, CHO-K1/hu 4-1BB cells).
T2 construct: whole, on cells; Expressed on CHO-K1/hu 4-1BB cells (GenScript, M00538); also called CD137; TNFRSF9
T2 sequence (Q07011 24-255): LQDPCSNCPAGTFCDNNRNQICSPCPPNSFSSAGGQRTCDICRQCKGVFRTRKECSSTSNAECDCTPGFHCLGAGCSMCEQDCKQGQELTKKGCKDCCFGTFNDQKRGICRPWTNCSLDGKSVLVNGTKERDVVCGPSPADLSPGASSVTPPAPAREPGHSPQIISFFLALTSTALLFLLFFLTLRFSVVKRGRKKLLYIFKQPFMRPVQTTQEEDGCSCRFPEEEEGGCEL
Protocol: The binding ability of the binding protein to a CHO-K1 cell line CHO-K1/hu 4-1BB (GenScript, M00538) highly expressing human 4-1BB and a CHO-K1 cell line CHO-K1/cyno 4-1BB (GenScript, M00569) highly expressing cynomolgus monkey 4-1BB were determined by flow cytometry FACS. Specifically, the cells were digested and resuspended in a complete medium, and the cell density was adjusted to 2×10⁶ cells/mL. […] The cells were incubated at 4° C. for 1 h away from light. Then, the cells in each well were rinsed twice with 100 μL of pre-cooled FACS buffer (PBS buffer containing 0.5% BSA) and centrifuged at 500 g at 4° C. for 5 min, and then the supernatant was discarded. […] Then, the cells in each well were then rinsed twice with 200 μL of pre-cooled FACS buffer and centrifuged at 500 g at 4° C. for 5 min, and then the supernatant was discarded. Finally, a pre-cooled FACS buffer was added at 200 μL/well to resuspend the cells. Fluorescence signal values were read using a BD FACS CANTOII flow cytometer or an ACEA NovoCyte flow cytometer, and the data were processed and analyzed using FlowJo v10 (FlowJo, LLC) software.

Row | Binder | binding result
8 | B1 | binds
9 | B3 | binds
